{"source": "patent US20070036810A1", "about": "“Cyclic amp response element activator proteins and uses related thereto” (priority 2003, published 2007)", "type_in_all_cases": "cell-based", "key": {"[1]": {"tested_on": "GAL4-CREB fusion protein", "assay": "GAL4-CREB activation assay in HLR cell line", "conditions": "HLR cell line with integrated pFR-Luc reporter, normalized to pCMV-BD vector", "protocol": "To determine if CREAP proteins can directly activate CREB1 protein, the expression constructs of CREAP1, CREAP2 and CREAP3 were transfected individually or with GAL4-CREB plasmid (Stratagene) into HLR cell line (Stratagene) carrying genomic DNA integrated copies of pFR-Luc reporter. Briefly, HLR cells were maintained per manufacturer's instructions. Selected plasmids and either empty vector (pCMV-BD) or GAL4-CREB plasmid were transfected at 75 ng/well using Fugene6 transfection reagent (Roche) as described above. As a positive control pFC-PKA an expression construct encoding catalytic subunit of protein kinase A (Stratagene) was also co-trasfected with GAL4-CREB. Fold of activation was compared to the reporter's activity measured in the cells transfected with empty vector.\nThe ability of full length CREAP1, CREAP2 and CREAP3 to induce the activity of GAL4-CREB fusion protein (Stratagene) was tested. The data presented are normalized to the value seen with pCMV-BD vector. […] Note the fold induction obtained with positive control is lower when compared to the data from Table 6 when all the plasmids including the reporter were transiently transfected."}, "[2]": {"tested_on": "minimal promoter linked to multiple copies of CRE", "assay": "CRE-Luc reporter co-transfection assay with the CREAP gene family", "conditions": "cotransfection, relative to empty pCMV-SPORT6 vector", "text": "The entire amino acid sequence for CREAP1 was used in a BLASTP search of a public NCBI database. Initially two public domain cDNAs (XM—117201 and FLJ00364) were identified that have significant homology to the CREAP1 coding region. The nucleotide sequence of XM—117201 was used in a BLASTN search (Altschul S. F. et al., Nucleic Acids Res. 25:3389-3402 (1997)) of a proprietary cDNA library EST database and 4 clones were identified that represent XM—117201 public sequence. All 4 clones were functionally tested upon co-transfection with the CRE-Luc and IL-8p-Luc reporters initially found to be induced by CREAP using methods similar to those disclosed above. Briefly, trypsinized HeLa cells are resuspended in complete growth media at 6×10^4 cells/ml and distributed into white 96-well plates (Costar) in the volume of 100 μl per well. Cells are left overnight in a tissue culture incubator at 37° C. and 5% CO2. pGL3B-IL-8p-Luc reporter plasmid or CRE-Luc reporter (BD Biosciences) as well as tested cDNAs are resuspended in OptiMEM I low serum media (GIBCO BRL) at 25 ng/ml. The reporter plasmids and cDNAs are then distributed into 96-well clean PCR plates (ABGene) at 4 μl/well and 3 μl/well respectively. Mixture containing Fugene 6 reagent (Roche Applied Bioscience) at 1.5 μl per transfection and pRL-SV40 (Promega) plasmid 20 ng per transfection is added in the volume of 10 μl per well of the 96-well PCR plate containing prediluted cDNAs. […]\nThe activity of firefly and Renilla luciferase is measured using the DualGlo Luciferase Assay System (Promega) following the protocol supplied by the manufacturer. Briefly, 115 μl of freshly reconstituted luciferase reagent is added to each well of the 96-well tissue culture plates with a Multidrop 384 and, after 15 minutes incubation, luminescence is read on a LUMINOSKAN Ascent Luminometer (Thermo Labsystems) with a 400 msec integration time. Subsequently, 115 μl of Stop-and-Glo reagent is added to each well of the 96-well tissue culture and, after 15 minutes incubation, luminescence is read on a LUMINOSKAN Ascent Luminometer with a 200 msec integration time. The activity of each tested cDNA is measured as a ratio of the corresponding firefly and Renilla luciferase activities.\nTo investigate this, the ability of CREAP2 and CREAP3 to activate gene expression driven by the IL-8 promoter and a CRE-dependent promoter was tested in co-transfection assays as disclosed above. Briefly, the levels of expression of a luciferase reporter driven by either the IL-8 promoter or a minimal promoter linked to 4 copies of CRE were determined after cotransfection with either an empty pCMV-SPORT6 expression vector or with the same vector carrying a cDNA for CREAP1, CREAP2 or CREAP3. […]"}, "[3]": {"tested_on": "CRE-like element of IL-8 promoter (pCREL-Luc)", "assay": "pCREL-Luc reporter (concatamerized CRE-like site) assay", "conditions": "minimal promoter carrying concatamerized CRE-like site; data not shown", "text": "The pIL-8Luc reporter was constructed by insertion of the −1491 to +43 region of the human IL-8 gene into pGL3Basic vector (Promega, Inc). PCR was used to generate a wild type minimal IL-8 promoter as well as point mutants. Mutations in AP-1, C/EBP, NF-κB were as described by Wu et al. (Wu et al. J. Biol. Chem., 272:2396-2403 (1997)). The sequence of a putative CRE-like site TGACATAA was mutated to TCGATCAA. Promoter constructs carrying 6 concatamerised copies of CRE-like response element (pCREL-Luc) or 5 copies of CRE-like element TGACACAA found in human PEPCK and CAPL promoters (pCREL2-Luc) were prepared by ligating PCR amplified sequences into pTAL-Luc (BD Biosciences). All techniques were performed using conventional methods.\nIn order to determine if the “CRE-like element” was directly responsive to CREAP1 or MAP3K11, the ability of both genes to activate a minimal promoter carrying concatamerized CRE-like site (pCREL-Luc) was examined. In addition, we studied the effect of PMA known inducer of AP-1."}}, "data": [{"molecule": "CREAP1: human CRE activating protein 1, 650 amino acids, SEQ ID NO 2; expressed from pCMVSPORT-CREAP1 (protein, human) MATSNNPRKFSEKIALHNQKQAEETAAFEEVMKDLSLTRAARLQLQKSQYLQLGPSRGQYYGGSLPNVNQIGSGTMDLPFQPSGFLGEALAAAPVSLTPFQSSGLDTSRTTRHHGLVDRVYRERGRLGSPHRRPLSVDKHGRQADSCPYGTMYLSPPADTSWRRTNSDSALHQSTMTPTQPESFSSGSQDVHQKRVLLLTVPGMEETTSEADKNLSKQAWDTKKTGSRPKSCEVPGINIFPSADQENTTALIPATHNTGGSLPDLTNIHFPSPLPTPLDPEEPTFPALSSSSSTGNLAANLTHLGIGGAGQGMSTPGSSPQHRPAGVSPLSLSTEARRQQASPTLSPLSPITQAVAMDALSLEQQLPYAFFTQAGSQQPPPQPQPPPPPPPASQQPPPPPPPQAPVRLPPGGPLLPSASLTRGPQPPPLAVTVPSSLPQSPPENPGQPSMGIDIASAPALQQYRTSAGSPANQSPTSPVSNQGFSPGSSPQHTSTLGSVFGDAYYEQQMAARQANALSHQLEQFNMMENAISSSSLYSPGSTLNYSQAAMMGLTGSHGSLPDSQQLGYASHSGIPNIILTVTGESPPSLSKELTSSLAGVGDVSFDSDSQFPLDELKIDPLTLDGLHMLNDPDMVLADPATEDTFRMDRL", "values": [{"measurement": "Fold Induction", "setting": "[1]", "result": 6.122}, {"measurement": "CRE: level of expression of luciferase relative to empty vector", "setting": "[2]", "result": 28.6}, {"measurement": "activation of pCREL-Luc", "setting": "[3]", "result": "strongly activated"}]}]}
